Measured values: article PMC6385258

Legend:
[1] = target: EGF receptor (EGFR) (human (endogenous in MDA-MB-231, MCF-7, MDA-MB-468)) (UniProt P00533); experiment: flow cytometry on cells; MDA-MB-231 cells in suspension; QD-EGF 0.06-120 nM (EGF:QD = 0.33) or dye-EGF 0.02-40 nM; 4 °C, 4 h with rocking; PBS with 0.5% BSA; nonspecific binding measured with 2 µM unlabeled EGF and subtracted; one-site fit
[2] = target: EGF receptor (EGFR) (human (endogenous in MDA-MB-231, MCF-7, MDA-MB-468)) (UniProt P00533); experiment: single-molecule counting of quantum dots by calibrated 3D deconvolution microscopy (QDC-3DM); MDA-MB-231 cells on fibronectin micropatterns; 1 nM QD744-EGF pulse for 5 min, washed, kept in serum-free medium; counted 10 and 30 min after the start of the pulse; also with gefitinib 0-5.1 µM
[3] = target: EGF receptor (EGFR) (human (endogenous in MDA-MB-231, MCF-7, MDA-MB-468)) (UniProt P00533); experiment: single-molecule counting of quantum dots by calibrated 3D deconvolution microscopy (QDC-3DM); unpatterned MDA-MB-468 cells (high EGFR expression); 1 nM QD-EGF for 5 min on ice; washed and fixed
[4] = target: EGF receptor (EGFR) (human (endogenous in MDA-MB-231, MCF-7, MDA-MB-468)) (UniProt P00533); experiment: single-molecule counting of quantum dots by calibrated 3D deconvolution microscopy (QDC-3DM); unpatterned MDA-MB-231 cells; QD-EGF at 0.1, 1, 10 or 100 nM for 5 min on ice in serum-free DMEM with 0.8% BSA; washed and fixed

Kd [1] [nM] | EGF per cell (1 nM QD-EGF) [2] [EGF per cell] | QD-EGF per cell 30 min after the start of a 5 min pulse [2] [per cell] | mean EGF bound per cell (1 nM QD-EGF) [3] [EGF per cell] | QD-EGF counts per cell (0.1, 1 and 10 nM QD-EGF) [4] [per cell] | mean EGF bound per cell (1 nM QD-EGF) [4] [EGF per cell] | Substance
3.2 |  |  |  |  |  | EGF conjugated to a single tetramethylrhodamine dye (ligand)
 | 1270 | 800 | 922 | 0 to 4000 | 80 | QD-EGF conjugate: epidermal growth factor with a single N-terminal biotin bound to a streptavidin-conjugated quantum dot (ligand)
